According to patent US20050048605A1 (Takeda / Millennium, published 2005):
Values belong to the binder of their own block, whether it stands above or below them. Where no end group is shown, it is not given here. [ ]: non-standard residue; d: D form. The star is where a group is joined. Nle = CCCC[C@H](N)C(=O)O; 125I = [125I]*

How the values were obtained:
[1] = target: T1, human-derived G protein-coupled receptor protein TGR23-2 (human TGR23-2) (human, UniProt Q6W5P4 1-371); test: competition with [Nle10,125I-Tyr15] human TGR23-2 ligand (1-20); membrane fraction of TGR23-2 expressing CHO cells at 1 ug/ml; filter assay
T1 construct: Expressed in CHO dhfr- cells (pAKKO-TGR23-2)
T1 chain: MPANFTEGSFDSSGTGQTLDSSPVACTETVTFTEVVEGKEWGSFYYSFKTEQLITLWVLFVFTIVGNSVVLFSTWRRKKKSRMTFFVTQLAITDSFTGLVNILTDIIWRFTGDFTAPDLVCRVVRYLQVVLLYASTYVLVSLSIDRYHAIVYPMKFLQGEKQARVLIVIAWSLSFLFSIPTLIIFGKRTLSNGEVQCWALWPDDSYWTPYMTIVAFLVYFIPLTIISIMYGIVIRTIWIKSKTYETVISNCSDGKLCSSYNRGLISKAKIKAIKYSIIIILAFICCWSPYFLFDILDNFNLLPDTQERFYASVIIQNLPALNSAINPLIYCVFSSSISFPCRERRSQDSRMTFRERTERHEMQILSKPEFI
Procedure: Cell membrane fraction prepared from TGR23-1 expressing CHO cells and TGR23-2 expressing CHO cells was diluted to various concentration with assay buffer (20 mM Tris-HCl, 5 mM EDTA, 0.1% BSA, 0.5 mM PMSF, 1 μg/ml Pepstatin, 4 μg/ml E-64, 20 μg/ml Leupeptin, pH7.4), and 200 μl each of the diluent was dispensed into polypropilene test tube (Falcon 2053). In order to determine an amount of maximum binding, 2 μl of DMSO and 2 μl of 10 nM [Nle¹⁰, ¹²⁵I-Tyr¹⁵] human TGR23-2 ligand (1-20) were added to the membrane fraction solution. Further, in order to determine a non-specific binding, 2 μl of 1 μM [Nle¹⁰, Tyr¹⁵] human TGR23-2 ligand (1-20)/DMSO solution was added to the membrane fraction solution. The reaction was done at 25° C. for 90 minutes, and the reaction mixture was filtered by suction filtration using Whatman glassfilter (GF-F) treated with polyethyleneimine. After filtration, a radioactivity remaining on the filter was counted using γ-counter, and an amount of specific binding was estimated by subtracting an amount of non-specific binding from an amount of maximum binding. When the concentration of membrane fraction was changed, a specific binding of [Nle¹⁰, ¹²⁵I-Tyr¹⁵] human TGR23-2 ligand (1-20) was perceived depending on the concentration of membrane fraction. An inhibition of binding activity of the test specimen to TGR23-1 receptor or TGR23-2 receptor (inhibition rate (%)) was represented by a ratio of the value to the specific binding (SB), wherein the value is calculated by subtracting the radioactivity remaining on the filter (X) in the case of adding the test sample and [Nle¹⁰, ¹²⁵I-Tyr¹⁵] human TGR3-2 ligand (1-20) from the total binding (TB) ((TB−X)/SB×100 (%)).

[2] = target: T2, rat-derived G protein-coupled receptor protein TGR23-5 (rat TGR23-5) (rat, UniProt P0C0L6 1-372); test: cell-based or functional assay
T2 sequence: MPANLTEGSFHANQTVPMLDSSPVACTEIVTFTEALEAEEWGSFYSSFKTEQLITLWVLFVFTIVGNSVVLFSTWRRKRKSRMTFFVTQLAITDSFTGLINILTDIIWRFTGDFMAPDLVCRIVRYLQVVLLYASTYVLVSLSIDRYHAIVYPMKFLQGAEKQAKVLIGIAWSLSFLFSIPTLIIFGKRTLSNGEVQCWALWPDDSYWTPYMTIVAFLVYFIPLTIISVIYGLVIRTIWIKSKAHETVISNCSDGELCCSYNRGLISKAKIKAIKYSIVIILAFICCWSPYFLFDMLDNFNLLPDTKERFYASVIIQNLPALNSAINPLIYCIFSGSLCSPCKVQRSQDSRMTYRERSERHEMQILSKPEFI

[3] = target: T3, rat-derived G protein-coupled receptor protein TGR23-1 (rat TGR23-1) (rat, UniProt P0C0L6 1-372); test: cell-based or functional assay
T3 sequence: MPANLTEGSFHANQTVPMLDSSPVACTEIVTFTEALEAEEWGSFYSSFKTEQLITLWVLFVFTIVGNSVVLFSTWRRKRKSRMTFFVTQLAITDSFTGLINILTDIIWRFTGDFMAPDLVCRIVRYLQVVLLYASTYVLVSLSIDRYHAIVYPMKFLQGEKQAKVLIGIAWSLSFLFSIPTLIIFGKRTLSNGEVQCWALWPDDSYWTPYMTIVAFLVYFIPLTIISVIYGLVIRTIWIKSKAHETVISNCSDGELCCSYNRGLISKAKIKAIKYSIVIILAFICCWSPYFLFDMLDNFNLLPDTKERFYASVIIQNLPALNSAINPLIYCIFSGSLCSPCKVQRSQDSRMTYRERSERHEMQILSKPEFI

[4] = target: T3, rat-derived G protein-coupled receptor …; test: saturation binding with Scatchard analysis on the membrane fraction of rat TGR23-1 expressing CHO cells; row head 'Binding Constant'; text gives dissociation constant 141±8.71 (pM)
Procedure: (§1) The membrane fractions of rat TGR23-1 expressing CHO cells and rat TGR23-5 expressing CHO cells, which were prepared as described above, were suspended in binding buffer (20 mM Tris-HCl (pH7.4), 5 mM EDTA, 0.1% BSA, 0.5 mM PMSF, 0.1 μg/ml of pepstatin, 20 μg/ml of leupeptine and 4 μg/ml of E-64). The concentrtion was adjusted to 10 μg/ml. The solutiion was used as a membrane fraction solution for binding saturation. Total binding of [Nle¹⁰, ¹²⁵I-Tyr¹⁵] human TGR23-2 ligand (1-20), which was prepared by the method described in Example 26, to the membrane fractions, was obtained by the following method.
(§2) To 200 μl of the membrane fraction solution for binding saturation, 2 μl of dimethylsulfoxide (DMSO) and 2 μl of [Nle¹⁰, ¹²⁵I-Tyr¹⁵] human TGR23-2 ligand (1-20) having various concentrations, were added, and then the mixture was incubated at 25° C. for 90 minutes. […] The radioactivity of [Nle¹⁰, ¹²⁵I-Tyr¹⁵] human TGR23-2 ligand (1-20) trapped on the glass filter was measured by counter, and the obtained value was determined as the total binding. […] A specific binding at a given concentration of [Nle¹⁰, ¹²⁵I-Tyr¹⁵] human TGR23-2 ligand (1-20) is calculated by subtracting the non-specific binding from the total binding at the same concentration. […]

[5] = target: T2, rat-derived G protein-coupled receptor …; test: saturation binding with Scatchard analysis on the membrane fraction of rat TGR23-5 expressing CHO cells; row head 'Binding Constant'; text gives dissociation constant 125±8.36 (pM)
Procedure: as §1, §2

[6] = target: T4, human-derived G protein-coupled receptor protein TGR23-1 (human TGR23-1) (human, UniProt Q6W5P4 1-371); test: radioligand filter binding on the membrane fraction of TGR23-1 expressing CHO cells
T4 construct: Expressed in CHO dhfr- cells (pAKKO-TGR23-1)
T4 sequence: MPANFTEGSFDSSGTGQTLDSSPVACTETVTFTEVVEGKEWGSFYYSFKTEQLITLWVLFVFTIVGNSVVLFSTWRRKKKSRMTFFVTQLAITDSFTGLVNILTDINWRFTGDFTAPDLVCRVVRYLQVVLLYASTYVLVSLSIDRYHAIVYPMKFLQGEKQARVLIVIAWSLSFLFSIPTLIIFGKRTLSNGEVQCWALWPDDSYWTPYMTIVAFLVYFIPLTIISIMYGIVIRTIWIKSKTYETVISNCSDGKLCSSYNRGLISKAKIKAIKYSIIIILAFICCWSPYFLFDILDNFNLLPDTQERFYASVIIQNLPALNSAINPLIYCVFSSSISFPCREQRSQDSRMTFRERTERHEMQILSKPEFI
From the text: (§3) The Receptor Binding Assay Using [Nle¹⁰, ¹²⁵I-Tyr¹⁵] human TGR3-2 ligand (1-20) Using using [Nle¹⁰, ¹²⁵I-Tyr¹⁵] human TGR23-2 ligand (1-20) prepared by the method described in Example 26, and a cell membrane fraction prepared from TGR23-2 expressing CHO cells as described in Example 24 and a cell membrane fraction prepared from TGR23-1 expressing CHO cells by the similar method to that described in Example 24 using TGR23-1 expressing CHO cells instead of TGR23-2 expressing CHO cells, a receptor binding assay was carried out as follows.
(§4) Cell membrane fraction prepared from TGR23-1 expressing CHO cells and TGR23-2 expressing CHO cells was diluted to various concentration with assay buffer (20 mM Tris-HCl, 5 mM EDTA, 0.1% BSA, 0.5 mM PMSF, 1 μg/ml Pepstatin, 4 μg/ml E-64, 20 μg/ml Leupeptin, pH7.4), and 200 μl each of the diluent was dispensed into polypropilene test tube (Falcon 2053). In order to determine an amount of maximum binding, 2 μl of DMSO and 2 μl of 10 nM [Nle¹⁰, ¹²⁵I-Tyr¹⁵] human TGR23-2 ligand (1-20) were added to the membrane fraction solution. […] After filtration, a radioactivity remaining on the filter was counted using γ-counter, and an amount of specific binding was estimated by subtracting an amount of non-specific binding from an amount of maximum binding. […]

[7] = target: T1, human-derived G protein-coupled …; test: radioligand filter binding on the membrane fraction of TGR23-2 expressing CHO cells
From the text: as §3, §4

B1: mouse TGR23-2 ligand (1-20) (peptide)
peptide: SFRNGVGSGAKKTSFRRAKQ
IC50 [1]: 0.0245 nM

B2: rat TGR23-2 ligand (1-18) (peptide)
peptide: SFRNGVGSGVKKTSFRRA
IC50 [1]: 0.0928 nM
Intracellular Ca increasing activity (EC50) [2]: 14 nM
Intracellular Ca increasing activity (EC50) [3]: 0.19 nM

Now from value to binder:

Kd [4]: 0.141 nM
Kd [5]: 0.125 nM
binding result [6]: binds
binding result [7]: binds
B3: [Nle^10, ^125I-Tyr^15] human TGR23-2 ligand (1-20) (peptide)
peptide: SFRNGVGTG[Nle]KKTSY(125I)QRAKS

IC50 [1]: 0.105 nM
B4: human TGR23-2 ligand (1-20) (peptide)
peptide: SFRNGVGTGMKKTSFQRAKS
notes: also called human TGR23 ligand (1-20)
